Assay [1] has as its target asialofetuin (ASF) (UniProt P12763). Put plainly: saturation binding of GFP fluorescence to ASF adsorbed onto plastic, [GFP]=0-10 µM.
The target is the same in assay [2]. Put plainly: cell-based or functional assay.

UniProt P12763, sequence (P12763 19-359 limits assumed): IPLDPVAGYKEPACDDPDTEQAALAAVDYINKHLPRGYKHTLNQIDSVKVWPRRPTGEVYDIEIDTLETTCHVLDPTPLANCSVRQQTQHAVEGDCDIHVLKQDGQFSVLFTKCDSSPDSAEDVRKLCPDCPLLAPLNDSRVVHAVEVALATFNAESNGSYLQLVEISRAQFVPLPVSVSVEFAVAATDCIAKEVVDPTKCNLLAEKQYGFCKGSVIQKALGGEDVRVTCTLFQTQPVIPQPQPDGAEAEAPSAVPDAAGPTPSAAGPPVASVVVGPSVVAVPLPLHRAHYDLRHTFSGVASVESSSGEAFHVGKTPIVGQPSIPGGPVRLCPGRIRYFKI

In the assay with asialofetuin (ASF) [1], “GFP-TT-G3 (superfolder green fluorescent protein - TriggerTrimer coiled-coil - human galectin-3; trimeric nanoassembly)” yielded a concentration approaching saturation of 2 µM.

As to “wild-type galectin-3 (WT-G3) (from UniProt P17931 2-250)”, in the assay with asialofetuin (ASF) [2], the WT-G3 concentration at which insoluble aggregates with 7 uM ASF are detected at 420 nm is more than 2.5 µM and the absorbance of 10 uM WT-G3 plus 7 uM ASF in PBS was determined as 0.4 absorbance.

(Values after patent US20220106580A1.)
